# In paper PMC12533913:
# Assays:
# Assay in all cases: SPR
# [1] = biological target: Influenza A virus A/WSN/1933 (H1N1) particles, purified (Influenza A virus A/WSN/1933 (H1N1)) (UniProt P03470)
# [2] = biological target: Influenza NA protein (recombinant, bought) (Influenza A virus (strain not stated)) (UniProt P03470)
# [3] = biological target: Influenza A H1N1 (A/Puerto Rico/8/34/Mount Sinai) Matrix protein 1 / M1 Protein (His Tag) (Influenza A virus A/Puerto Rico/8/34/Mount Sinai (H1N1)) (UniProt P03485)
# UniProt P03485, sequence (P03485 whole entry): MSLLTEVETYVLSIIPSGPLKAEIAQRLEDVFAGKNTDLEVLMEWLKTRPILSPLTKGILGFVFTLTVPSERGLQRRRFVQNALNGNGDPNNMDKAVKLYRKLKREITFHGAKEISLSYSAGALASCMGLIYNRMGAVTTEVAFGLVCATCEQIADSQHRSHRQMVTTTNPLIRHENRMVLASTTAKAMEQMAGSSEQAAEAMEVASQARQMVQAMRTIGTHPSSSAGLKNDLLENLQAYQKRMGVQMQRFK
substance,measurement,setting,value
"TfR1 protein (recombinant, bought from Sino Biological) (from UniProt P02786 1-760) (receptor)",Kd,[1],34.6 nM
same,Kd,[2],42.4 nM
same,Kd,[3],75.9 nM
